Data: paper PMC9232852 (2022)
Values belong to the binder of their own block, whether it stands above or below them.

Tests used:
BTN2A1 ID271 = target: T1, BTN2A1 ID271 (Homo sapiens, UniProt Q7KYR7); assay: ITC
T1 chain: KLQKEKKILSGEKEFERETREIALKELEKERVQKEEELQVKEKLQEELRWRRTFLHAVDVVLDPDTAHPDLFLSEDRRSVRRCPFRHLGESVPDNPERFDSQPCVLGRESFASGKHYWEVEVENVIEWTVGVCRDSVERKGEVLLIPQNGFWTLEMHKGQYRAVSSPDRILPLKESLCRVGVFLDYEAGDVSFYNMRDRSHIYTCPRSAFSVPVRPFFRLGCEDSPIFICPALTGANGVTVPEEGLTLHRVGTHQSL

BTN2A1 ID309 = target: T2, BTN2A1 ID309 (Homo sapiens, UniProt Q7KYR7); assay: ITC
T2 chain: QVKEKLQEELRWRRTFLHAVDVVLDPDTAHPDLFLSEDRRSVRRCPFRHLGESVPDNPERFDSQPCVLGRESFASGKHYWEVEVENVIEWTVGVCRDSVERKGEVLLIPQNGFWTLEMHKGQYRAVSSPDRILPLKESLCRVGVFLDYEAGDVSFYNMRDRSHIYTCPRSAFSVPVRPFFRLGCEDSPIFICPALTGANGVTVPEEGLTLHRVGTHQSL

Kd (BTN2A1 ID271): 463 nM
B1: BTN3A1 B30.2 (protein)
chain: not shown
modifications: HMBPP

Kd (BTN2A1 ID309): 674 nM
Kd (BTN2A1 ID271): 886 nM
B2: BTN3A1 BFI (full intracellular domain) (protein)
chain: not shown
modifications: HMBPP
